Source: PMC4739419, “Mutations in the nucleotide binding and hydrolysis domains of Helicobacter pylori MutS2 lead to altered biochemical activities and inactivation of its in vivo function” (BMC Microbiology, 2016)

Experiments:
[1] = system: Nc1ncnc2c1ncn2[C@@H]1O[C@H](COP(=O)(O)OP(=O)(O)OP(=O)(O)O)[C@@H](O)[C@H]1O; assay: purified protein, by the assay type; conditions: pH 8.0; 37.0 °C
HpMutS2 = target: T1, HpMutS2 (Helicobacter pylori, UniProt O25338); assay type: biochemical; conditions: for support of HpMutS2 ATPase activity by metal ion: metal ion 5 mM, ATP 100 μM, HpMutS2 45 nM, 37 °C, 30 min
T1 construct: (A) HpMutS2 (1-762): Mol. wt; (kDa): 87.8; His6 (C); made in house; host or cells: E. coli Rosetta (DE3) pLysS
Experimental: To delineate the characteristics of the ATPase activity of HpMutS2, we initially determined the metal ion requirement for ATP hydrolysis by HpMutS2. Purified HpMutS2 was incubated with excess of cold ATP (100 μM) with or without metal ions (5 mM each), and ATP hydrolysis monitored by thin layer chromatography using radiolabeled ATP [γ-^32P] as tracer.
Additional files 1: Figure S1. Multiple sequence alignment of MutS2 proteins from different H. pylori strains. Multiple sequence alignment of MutS2 proteins from different bacteria was carried out using Clustal Omega (http://www.ebi.ac.uk/Tools/msa/clustalo/). The protein sequences were obtained from NCBI protein database. The conserved nucleotide binding Walker-A motif and nucleotde hydrolysis Walker-B motifs are framed. The arrow indicates H. pylori MutS2 protein sequence. Figure S2. ATPase activity of HpMutS2 and variants. (A) Divalent metal ion requirement for ATPase activity of HpMutS2. Mentioned divalent metal ions (5 mM each) were incubated separately with cold ATP (100 μM) with (+) or without (−) HpMutS2 (45 nM). After incubation at 37 °C for 30 min the reactions were stopped by EDTA (50 mM) and the products were separated by TLC. ATP [γ-^32P] was used as tracer to monitor the product formation. (B) Time dependent hydrolysis of ATP by HpMutS2. A mixture of cold ATP (1 mM) and ATP [γ-^32P] was incubated in presence of HpMutS2 (45 nM) at 37 °C . The reaction aliquots were removed at indicated time points. The reactions were stopped by adding EDTA (50 mM) and products were separated by TLC. […] (C) Effect of HpSmr domain deletion on ATPase activity of HpMutS2. Increasing concentrations of proteins were incubated with a mixture of cold ATP (1 mM) and ATP [γ-^32P] at 37 °C for 30 min. The reactions were processed as described in (A). […] Figure S3. Limited proteolysis. Proteins (4 μM) were incubated with chymotrypsin (1.25 ng) for 30 min at 37 °C. The heat denaturation of proteins was performed by heating them at 95 °C for 10 min. […] Reactions were stopped by adding 1X protease inhibitor cocktail (Sigma), heat denatured and the products were separated on SDS-PAGE (10 %). Lane M: Molecular weight marker. Protein bands were detected by staining with Coomassie Brilliant Blue. […]. […] (A-E) Effect of nucleotides on DNA binding properties of HpMutS2. Electrophoretic mobility shift assays were performed with indicated DNA substrates (0.16 nM) without and with nucleotides (1 mM). After incubation for 30 min on ice, the reaction mixture was electrophoresed on polyacrylamide gel (8 %). Schematic representation of DNA substrates used are shown at the left side of autoradiographs. Figure S5. Chase experiments. A preformed ssDNA-HpMutS2 complex was chased with increasing concentrations of (A) ATP (0.25–5 mM) and (B) ssDNA (7.5–500 nM). (C) A preformed SC pUC19 DNA-HpMutS2 complex was chased with increasing concentrations of ATP (0.25–5 mM) . The reactions were performed at 37 °C and the reaction mixture was electrophoresed on PAGE (8 %) in case of (A and B) or an agarose gel (0.8 %) in case of (C). The amount of displaced DNA was estimated by assuming the DNA without protein as 100 %. Figure S6. Western blot. Equal numbers of exponentially growing H. pylori cells were lysed in Laemmli buffer (1X) by boiling at 95 °C for 5 min. The proteins were separated by SDS-PAGE (10 %). The HpMutS2 and mutants were detected by probing with polyclonal antibodies against HpMutS2. Table S1. Sequence of oligonucleotides used to prepare DNA substrates. Table S2. DNA substrates used in this study (* represents position of ^32P). (PDF 636 kb)

[2] = substrate: Nc1ncnc2c1ncn2[C@@H]1O[C@H](COP(=O)(O)OP(=O)(O)OP(=O)(O)O)[C@@H](O)[C@H]1O; assay: ATPase assay by thin layer chromatography with [γ-32P]ATP as tracer and cold ATP varied, 50 mM Tris pH 8.0, 50 mM NaCl, 1 mM DTT, 5 mM MgCl2, 37 °C, no DNA, Michaelis-Menten non-linear regression.; assay type: biochemical
[3] = target: the molecule itself; assay: SEC; Superose-6 HR 10/30, buffer B (50 mM Tris pH 8.0, 100 mM NaCl), 0.3 ml/min, approximately 150 ug protein injected; mass from a plot of Ve/Vo versus log of molecular mass of standards

HpMutS2-E413A (Helicobacter pylori 26695; E413A)
Km [1]: 373.2 ± 188.6 µM
Vmax [1]: 0.19 µM/min
kcat [1]: 0.0703 ± 0.011 s⁻¹

O=C(O)CN(CCN(CC(=O)O)CC(=O)O)CC(=O)O [EDTA]
effect on Mg2+ dependent ATPase activity (HpMutS2): inhibited

[Mn+2] [Mn^2+]
support of HpMutS2 ATPase activity by metal ion (HpMutS2): allowed the ATPase activity to various extents

[Mg+2] [Mg^2+]
support of HpMutS2 ATPase activity by metal ion (HpMutS2): supported a strong ATPase activity

[Co+2] [Co^2+]
support of HpMutS2 ATPase activity by metal ion (HpMutS2): allowed the ATPase activity to various extents

[Cu+2] [Cu^2+]
support of HpMutS2 ATPase activity by metal ion (HpMutS2): allowed the ATPase activity to various extents

[Ca+2] [Ca^2+]
support of HpMutS2 ATPase activity by metal ion (HpMutS2): allowed the ATPase activity to various extents

[Cd+2] [Cd ^2+]
support of HpMutS2 ATPase activity by metal ion (HpMutS2): allowed the ATPase activity to various extents

HpMutS2-G338R (Helicobacter pylori 26695; G338R)
Km [1]: 939.3 ± 489.2 µM
Vmax [1]: 0.64 µM/min
kcat [1]: 0.237 ± 0.0555 s⁻¹

[Ni+2] [Ni^2+]
support of HpMutS2 ATPase activity by metal ion (HpMutS2): did not significantly support the ATPase activity

[Zn+2] [Zn^2+]
support of HpMutS2 ATPase activity by metal ion (HpMutS2): allowed the ATPase activity to various extents

B1: Helicobacter pylori MutS2 (enzyme, Helicobacter pylori strain 26695, UniProt O25338 1-762, looked up)
chain: MSDAPKRSLNPTLMMNNNNTPPKPLEESLDLKEFIALFKTFFAKERDTIALENDLKQTFTYLNEVDAIGLPTPKSVKESDLIIIKLTKLGTLHLDEIFEIVKRLHYIVVLQNAFKTFTHLKFHERLNAIVLPPFFNDLIALFDDEGKIKQGANATLDALNESLNRLKKESVKIIHHYARSKELAPYLVDTQSHLKHGYECLLLKSGFSGAIKGVVLERSANGYFYLLPESAQKIAQKIAQIGNEIDCCIVEMCQTLSHSLQKHLLFLKFLFKEFDFLDSLQARLNFAKAYNLEFVMPSFTQKKMILENFSHPILKEPKPLNLKFEKSMLAVTGVNAGGKTMLLKSLLSAAFLSKHLIPMKINAHHSIIPYFKEIHAIINDPQNSANNISTFAGRMKQFSALLSKENMLLGVDEIELGTDADEASSLYKTLLEKLLKQNNQIIITTHHKRLSVLMAENKEVELLAALYDEEKERPTYTFLKGVIGKSYAFETALRYGVPHFLIEKAKTFYGEDKEKLNVLIENSSALERELKQKNEHLENALKEQEYLKNAWLLEMEKQKEIFHNKKLELEKSYQQALNILKSEVASKDTSSMHKEIHKASEILSKHKTNQEIPQIITNFQANEKARYKNESVLIVQILDKGYYWIETELGMRLKAHGSLLKKIQKPPKNKFKPPKTTIPKPKEASLRLDLRGQRSEEALDLLDAFLNDALLGGFEEVLICHGKGSGILEKFVKEFLKNHPKVVSFSDAPINLGGSGVKIVKL
notes: MutS2 of Helicobacter pylori strain 26695, full length, cloned in pET28b; Tetramer by gel filtration; a small fraction elutes near the void volume as multimers; also called HpMutS2; wild-type HpMutS2
Km [2]: 412.1 ± 83.43 µM
Vmax [2]: 1.88 µM/min
kcat [2]: 0.696 ± 0.048 s⁻¹
stoichiometry N [3]: 4
